In US20220202899A1, “COMPOSITION FOR PREVENTION OR TREATMENT OF HAIR LOSS INCLUDING HAPLN1” (HAPLNSCIENCE INC., priority 2019, published 2022):

Tests used:
TβRII [1] = assay: TβRII protein in human hair germinal matrix cells treated with HAPLN1 and/or HA, then TGF-β2 (Western blotting); assay type: cell-based
Method: (§1) Human hair germinal matrix cells were dispensed into a poly-D-lysine 6-well plate at a concentration of 5.0×10^4 per well and cultured for 24 hours. After 24 hours, the medium was removed and replaced with a new serum-free medium. HAPLN1 was treated with 25 ng/mL, HA was treated with 25 μg/mL, and after 1 hour, TGF-β2 (2 ng/mL) was treated. After 23 hours, cells were collected, a lysis buffer (25 mM Tris-HCl, 1 mM EDTA, 0.1% Triton-X100, phosphatase inhibitor, and protease inhibitor) was added, and all the cells were broken through sonication. TβRI and TβRII in the sample were measured using Western blotting. The optical density of TβRII was compared to that of GAPDH using a densitometer.

TβRI = TβRI protein in human hair germinal matrix cells treated with HAPLN1 and/or HA, then TGF-β2 (Western blotting); assay type: cell-based; details: HAPLN1 25 ng/mL; TGF-β2 2 ng/mL
Method: as §1

TβRII [2] = assay: TβRII protein in human hair germinal matrix cells deficient in endogenous HA (4-MU); assay type: cell-based; details: 4-MU-treated cells; HAPLN1 25 ng/mL; TGF-β2 2 ng/mL
Method: 4-MU (4-methylumbelliferone) is an inhibitor of HA-producing hyaluronan synthase 2 (HAS2), which produces HA. In order to confirm the effect of HA produced in cells, HA production in cells was inhibited using 4-MU.
The human hair germinal matrix cells, in which the endogenous HA was inhibited by treating 4-MU, were dispensed into a poly-D-lysine 6-well plate at a concentration of 5.0×10^4 per well and cultured for 24 hours. After 24 hours, the medium was removed and replaced with a new serum-free medium. HAPLN1 was treated with 25 ng/mL, and after 1 hour, TGF-β2 (2 ng/mL) was treated. After 23 hours, cells were collected, a lysis buffer (25 mM Tris-HCl, 1 mM EDTA, 0.1% Triton-X100, phosphatase inhibitor, and protease inhibitor) was added, and all the cells were broken through sonication. HAS2 and TβRII in the sample were measured using Western blotting. The optical density of each of HAS2 and TβRII was compared to that of GAPDH using a densitometer.

TβRII [3] = assay: TβRII protein after HAPLN1 and/or HA in CD44-deficient human hair germinal matrix cells; assay type: cell-based; details: after CD44 siRNA; HAPLN1 25 ng/mL and/or HA 25 μg/mL; TGF-β2 2 ng/mL, 23 hours
Method: The human hair germinal matrix cells, which were made to be deficient in CD44 by using CD44 siRNA, were dispensed into a poly-D-lysine 6-well plate at a concentration of 5.0×10^4 per well and cultured for 24 hours. After 24 hours, the medium was removed and replaced with a low-serum medium. CD44 siRNA and scrambled siRNA were added at a concentration of 25 pmol per well and incubated for 24 hours. After the siRNA and the medium were all removed, the medium was replaced with a serum-free medium having HAPLN1 (25 ng/mL) or HA (25 μg/mL) added thereto, and cultured for 1 hour. TGF-β2 (2 ng/mL) was treated and incubated for 23 hours. After collecting cells, a lysis buffer (25 mM Tris-HCl, 1 mM EDTA, 0.1% Triton-X100, phosphatase inhibitor, and protease inhibitor) was added, and all the cells were broken through sonication. TβRII in the sample was measured using Western blotting. The optical density of TβRII was compared to that of GAPDH using a densitometer.

cell membrane TβRII = assay: Cell membrane TβRII protein (biotin labelling, immunoprecipitation, Western blotting); assay type: cell-based, human; details: HAPLN1 25 ng/mL and/or HA 25 μg/mL; TGF-β2 2 ng/mL
Method: All proteins present in the cell membrane were labeled with biotin, and immunoprecipitation was performed with a biotin antibody to isolate only the cell membrane protein. In order to confirm changes in the ratio of TβRII among cell membrane proteins, Western blotting was performed. The specific experimental method will now be described.
Human hair germinal matrix cells were dispensed into a poly-D-lysine 100 mm dish at a concentration of 2.7×10^6 and cultured for 24 hours. After 24 hours, the medium was removed and replaced with a new serum-free medium. HAPLN1 was treated with 25 ng/mL and HA with 25 μg/mL, and after 1 hour, TGF-β2 (2 ng/mL) was treated. To label biotin after 23 hours, EZ-Link™ Sulfo-NHS-LC-Biotin (Thermo Fisher Scientific, MA, USA) was treated at a concentration of 250 μg/mL and incubated at 4° C. for 1 hour. The biotin labeling reaction was terminated by treatment with 50 mM Tris-HCl. After collecting cells, a lysis buffer (50 mM Tris-HCl, 150 mM NaCl, 1% NP-40, phosphatase inhibitor, and protease inhibitor) was added, and all the cells were broken through sonication. Cell membrane proteins were isolated by performing immunoprecipitation experiments using anti-biotin antibodies. TβRII in the isolated membrane protein sample was measured using Western blotting. The optical density of TβRII was compared to that of GAPDH using a densitometer.

[4] = test system: human hair germinal matrix cells; assay: Cell proliferation of human hair germinal matrix cells, CCK-8 (Example 10); assay type: cell-based; details: HAPLN1 25 ng/mL and/or HA 25 μg/mL; TGF-β2 2 ng/mL, 23 hours
Method: Human hair germinal matrix cells were dispensed into a poly-D-lysine 96-well plate at a concentration of 2.0×10^4 per well and cultured for 24 hours. After 24 hours, the medium was removed and replaced with a new serum-free medium. HAPLN1 was treated with 25 ng/mL and HA with 25 μg/mL, incubated for 1 hour, and then stimulated with TGF-β2 (2 ng/mL) for 23 hours. CCK-8 (Enzo Biochem, NY, USA) was treated and incubated at 37° C. for 1 hour.

[5] = test system: human hair germinal matrix cells; assay: Hair germinal matrix cell proliferating effect, CCK-8 (Example 13); assay type: cell-based; details: 25 ng/ml
Method: In the same manner as described above, HAPLN1 (25 ng/ml), CX3CL1 (25 ng/ml), CDON (25 ng/ml) or minoxidil (10 μM), and human recombinant TGF-β2 were diluted to a final concentration of 2 ng/ml, and the medium of the group containing TGF-β2 was replaced by 200 μl. To reduce an experimental variation, 3 wells per group were treated (triplication).
After incubation for 23 hours, the plate was removed from the incubator, and 20 μl of CCK-8 (WST-8) solution was added to the plate containing the medium and the reagent per 200 μl of the medium for the reaction to be carried out at 37° C. for 1 hour.
Human hair germinal matrix cells were released in a poly-D-lysine-coated flask using a mesenchymal stem cell medium (MSCM), and cultured in a 5% CO2 incubator at 37° C. When the cells were about 90% full, the cells were detached with a 0.05% Trypsin/EDTA solution, and then only the cells were recovered by centrifugation at 1000 rpm for 3 minutes. The recovered cells were dispensed into 96-well poly-D-lysine coated plates (BD bioscience) at 2.0×10^3 per well and cultured for 24 hours, and the final concentrations of HAPLN1, CX3CL1 and CDON were diluted to 25 ng/ml in a serum-free medium. The subsequent process was performed in the same manner as the experiment for the dermal papilla cells to measure the absorbance, and the results are shown in FIG. 22.

B1: hyaluronan and proteoglycan link protein 1 (protein, UniProt P10915 16-354, looked up)
Hyaluronan and proteoglycan …: DHLSDNYTLDHDRAIHIQAENGPHLLVEAEQAKVFSHRGGNVTLPCKFYRDPTAFGSGIHKIRIKWTKLTSDYLKEVDVFVSMGYHKKTYGGYQGRVFLKGGSDSDASLVITDLTLEDYGRYKCEVIEGLEDDTVVVALDLQGVVFPYFPRLGRYNLNFHEAQQACLDQDAVIASFDQLYDAWRGGLDWCNAGWLSDGSVQYPITKPREPCGGQNTVPGVRNYGFWDKDKSRYDVFCFTSNFNGRFYYLIHPTKLTYDEAVQACLNDGAQIAKVGQIFAAWKILGYDRCDAGWLADGSVRYPISRPRRRCSPTEAAVRFVGFPDKKHKLYGVYCFRAYN
notes: extracellular matrix protein found in cartilage; stabilizes aggregates of hyaluronic acid and proteoglycans
B1 was tested, and the “TβRII protein (optical density compared to GAPDH)” value (TβRII [1]; HAPLN1 25 ng/mL or HA 25 μg/mL alone, TGF-β2 2 ng/mL after 1 hour, 23 hours) was “significantly increased”, the “TβRII protein, HAPLN1 treated together with HA” value (TβRII [1]; HAPLN1 25 ng/mL with HA 25 μg/mL, TGF-β2 2 ng/mL) was “further enhanced the increase of TβRII by HA” and the “concentration of TβRI” value (TβRI) was “no change”. The TβRII level (TβRII [2]) was “recovered”, the “TβRII protein in CD44-deficient cells” value (TβRII [3]) was “not confirmed that TβRII was recovered” and the “cell membrane TβRII protein concentration” value (cell membrane TβRII) was “increased”. The “cell proliferation (absorbance at 450 nm) compared to the control group” value [4] was “promoted”, the “hair germinal matrix cell proliferation (absorbance at 450 nm)” value ([5]; absence of TGF-β2) was “significant hair germinal matrix cell proliferating activity” and the “hair germinal matrix cell proliferation (absorbance at 450 nm)” value ([5]; presence of TGF-β2 (2 ng/ml)) was “particularly superior hair germinal matrix cell proliferating activity”.
